Measurements from patent publication US20030092631A1 (Genentech, published 2003).

Tests used:
IGF-1 [1] = molecular target: T1, IGF-1 (human, UniProt P05019 49-118); assay: phage ELISA, IGF-1 on plate
T1 construct: mature; also called insulin-like growth factor-1; rhIGF-1
Description: (§1) From each round, individual peptide-displaying phage were isolated and analyzed for binding to IGF-1 in a phage ELISA by capturing the peptide-phage with IGF-1 immobilized on a plate, and detecting bound phage (see below). As a control for non-specific binding, the phage were also analyzed in a phage ELISA that used plates coated with BSA. […]
(§2) MAXISORP™ immunoplates (96-well) were coated with capture target protein for 2 hours at room temperature (100 μL at 5 μg/mL in 50 mM carbonate buffer, pH 9.6). The plates were then blocked for 1 h with 0.2% BSA in phosphate-buffered saline (PBS) and washed eight times with PBS, 0.05% TWEEN®-20 detergent. Phage particles were serially diluted into BSA blocking buffer and 100 μL were transferred to coated wells. After I h, plates were washed eight times with PBS, 0.05% TWEEN®-20 detergent, incubated with 100 μL of 1:3000 horse radish peroxidase/anti-M 13 antibody conjugate in BSA blocking buffer for 30 min. and then washed eight times with PBS, 0.05% TWEEN®-20 detergent and two times with PBS. Plates were developed using a tetramethylbenzidine substrate (TMB, Kirkegaard and Perry, Gaithersburg, Md.), stopped with 1.0 M H3PO₄, and read spectrophotometrically at 450 nm.

BSA = BSA (UniProt P02769 25-607); assay: phage ELISA, BSA on plate
BSA, sequence (P02769 25-607 limits assumed): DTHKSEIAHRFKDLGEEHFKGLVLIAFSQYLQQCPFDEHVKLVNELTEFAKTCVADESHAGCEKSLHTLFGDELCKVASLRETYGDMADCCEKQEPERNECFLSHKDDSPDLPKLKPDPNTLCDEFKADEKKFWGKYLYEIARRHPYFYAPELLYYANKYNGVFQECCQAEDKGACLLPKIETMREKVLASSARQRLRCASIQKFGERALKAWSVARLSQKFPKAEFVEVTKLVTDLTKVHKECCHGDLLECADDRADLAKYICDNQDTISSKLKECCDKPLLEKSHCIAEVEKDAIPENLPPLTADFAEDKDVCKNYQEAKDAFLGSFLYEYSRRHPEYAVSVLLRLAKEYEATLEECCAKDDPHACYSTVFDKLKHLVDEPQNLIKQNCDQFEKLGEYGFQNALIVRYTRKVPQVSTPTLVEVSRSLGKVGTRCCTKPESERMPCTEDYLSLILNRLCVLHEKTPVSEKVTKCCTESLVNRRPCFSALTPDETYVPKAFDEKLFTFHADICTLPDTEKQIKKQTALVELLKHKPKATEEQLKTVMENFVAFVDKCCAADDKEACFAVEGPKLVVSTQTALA
Description: as §1, §2

IGF-1 [2] = molecular target: T1, IGF-1; assay: cell-based or functional assay

T1 sequence (P05019 49-118): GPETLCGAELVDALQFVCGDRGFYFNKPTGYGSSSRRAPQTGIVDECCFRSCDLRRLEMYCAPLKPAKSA

B1: GEAAECAYDSLGMAYCYAKE (peptide)
chain: GEAAECAYDSLGMAYCYAKEGGGSGGGAEGDDPAKAAFNSLQASATEYIGYAWAMVVVIVGATIGIKLFKKFTSKAS
notes: naive clone; polyvalent P8 display on phage; STII signal left out
- binding result (IGF-1 [1]): binds
- binding result (BSA): no binding

B2: VMDQCFESYAEMRKCMLDGS (peptide)
chain: VMDQCFESYAEMRKCMLDGSGGGSGGGAEGDDPAKAAFNSLQASATEYIGYAWAMVVVIVGATIGIKLFKKFTSKAS
notes: as for B1
- binding result (IGF-1 [1]): binds
- binding result (BSA): no binding

B3: EAGAESRGWLQARCGELLGV (peptide)
chain: EAGAESRGWLQARCGELLGVGGGSGGGAEGDDPAKAAFNSLQASATEYIGYAWAMVVVIVGATIGIKLFKKFTSKAS
notes: as for B1
- binding result (IGF-1 [1]): binds
- binding result (BSA): no binding

B4: STYSCIRDMGWAVYCWETTL (peptide)
chain: STYSCIRDMGWAVYCWETTLGGGSGGGAEGDDPAKAAFNSLQASATEYIGYAWAMVVVIVGATIGIKLFKKFTSKAS
notes: as for B1
- binding result (IGF-1 [1]): binds
- binding result (BSA): no binding

B5: VESECLLSLPNLRRCMMDRL (peptide)
chain: VESECLLSLPNLRRCMMDRLGGGSGGGAEGDDPAKAAFNSLQASATEYIGYAWAMVVVIVGATIGIKLFKKFTSKAS
notes: as for B1
- binding result (IGF-1 [1]): binds
- binding result (BSA): no binding

B6: EVARCVVDAGGTWYCWAEMA (peptide)
chain: EVARCVVDAGGTWYCWAEMAGGGSGGGAEGDDPAKAAFNSLQASATEYIGYAWAMVVVIVGATIGIKLFKKFTSKAS
notes: as for B1
- binding result (IGF-1 [1]): binds
- binding result (BSA): no binding

B7: GASTTCLEKYRERQWCKELT (peptide)
chain: GASTTCLEKYRERQWCKELTGGGSGGGAEGDDPAKAAFNSLQASATEYIGYAWAMVVVIVGATIGIKLFKKFTSKAS
notes: as for B1
- binding result (IGF-1 [1]): binds
- binding result (BSA): no binding

B8: CECGKVSSRGCEKLCWLVSYM (peptide)
chain: CECGKVSSRGCEKLCWLVSYMGGGSGGGAEGDDPAKAAFNSLQASATEYIGYAWAMVVVIVGATIGIKLFKKFTSKAS
notes: as for B1
- binding result (IGF-1 [1]): binds
- binding result (BSA): no binding

B9: HPDKCFADVRALQECMESVR (peptide)
chain: HPDKCFADVRALQECMESVRGGGSGGGAEGDDPAKAAFNSLQASATEYIGYAWAMVVVIVGATIGIKLFKKFTSKAS
notes: as for B1
- binding result (IGF-1 [1]): binds
- binding result (BSA): no binding

B10: GESTCVTDLERVEYCWDEKS (peptide)
chain: GESTCVTDLERVEYCWDEKSGGGSGGGAEGDDPAKAAFNSLQASATEYIGYAWAMVVVIVGATIGIKLFKKFTSKAS
notes: as for B1
- binding result (IGF-1 [1]): binds
- binding result (BSA): no binding

Binder: WRCVDDLGGFQYCWAG [F2-2]
- IGF-1 KIRA (IGF-1 [2]): 130 µM
- Insulin KIRA (IGF-1 [2]): 93.6 µM

B11: GEGPECDLRQWGNLCGHWET (peptide)
chain: GEGPECDLRQWGNLCGHWETGGGSGGGAEGDDPAKAAFNSLQASATEYIGYAWAMVVVIVGATIGIKLFKKFTSKAS
notes: as for B1
- binding result (IGF-1 [1]): binds
- binding result (BSA): no binding

B12: SGTACRWGPSWLLCSLAGSP (peptide)
chain: SGTACRWGPSWLLCSLAGSPGGGSGGGAEGDDPAKAAFNSLQASATEYIGYAWAMVVVIVGATIGIKLFKKFTSKAS
notes: as for B1
- binding result (IGF-1 [1]): binds
- binding result (BSA): no binding

B13: VKDECLMSVEALKNCMGLVS (peptide)
chain: VKDECLMSVEALKNCMGLVSGGGSGGGAEGDDPAKAAFNSLQASATEYIGYAWAMVVVIVGATIGIKLFKKFTSKAS
notes: as for B1
- binding result (IGF-1 [1]): binds
- binding result (BSA): no binding

B14: DAMDCVVGPEWRKCFLEG (peptide)
chain: DAMDCVVGPEWRKCFLEGGGGSGGGAEGDDPAKAAFNSLQASATEYIGYAWAMVVVIVGATIGIKLFKKFTSKAS
notes: as for B1
- binding result (IGF-1 [1]): binds
- binding result (BSA): no binding

B15: SFCEFNDWWPTCLV (peptide)
chain: SFCEFNDWWPTCLVGGGSGGGAEGDDPAKAAFNSLQASATEYIGYAWAMVVVIVGATIGIKLFKKFTSKAS
notes: as for B1
- binding result (IGF-1 [1]): binds
- binding result (BSA): no binding

Binder: DECLMSVEALKNCMGG [F1-P]
- IGF-1 KIRA (IGF-1 [2]): 400 µM
- Insulin KIRA (IGF-1 [2]): 183 µM

B16: YDWVEACQKWPVLCMDSTMY (peptide)
chain: YDWVEACQKWPVLCMDSTMYGGGSGGGAEGDDPAKAAFNSLQASATEYIGYAWAMVVVIVGATIGIKLFKKFTSKAS
notes: as for B1
- binding result (IGF-1 [1]): binds
- binding result (BSA): no binding

B17: QIPAGCYESVQSLLECVQSA (peptide)
chain: QIPAGCYESVQSLLECVQSAGGGSGGGAEGDDPAKAAFNSLQASATEYIGYAWAMVVVIVGATIGIKLFKKFTSKAS
notes: as for B1
- binding result (IGF-1 [1]): binds
- binding result (BSA): no binding

B18: VEEKCYESITALRHCMQAMQ (peptide)
chain: VEEKCYESITALRHCMQAMQGGGSGGGAEGDDPAKAAFNSLQASATEYIGYAWAMVVVIVGATIGIKLFKKFTSKAS
notes: as for B1
- binding result (IGF-1 [1]): binds
- binding result (BSA): no binding

B19: LSSEECWEALKWQGCLMSER (peptide)
chain: LSSEECWEALKWQGCLMSERGGGSGGGAEGDDPAKAAFNSLQASATEYIGYAWAMVVVIVGATIGIKLFKKFTSKAS
notes: as for B1
- binding result (IGF-1 [1]): binds
- binding result (BSA): no binding

B20: REVKCMKDLSGHEYCWAEPR (peptide)
chain: REVKCMKDLSGHEYCWAEPRGGGSGGGAEGDDPAKAAFNSLQASATEYIGYAWAMVVVIVGATIGIKLFKKFTSKAS
notes: as for B1
- binding result (IGF-1 [1]): binds
- binding result (BSA): no binding

B21: GVETCYSDAMNTQYCWTTEL (peptide)
chain: GVETCYSDAMNTQYCWTTELGGGSGGGAEGDDPAKAAFNSLQASATEYIGYAWAMVVVIVGATIGIKLFKKFTSKAS
notes: as for B1
- binding result (IGF-1 [1]): binds
- binding result (BSA): no binding

B22: GIREELCDKGLHKMCFREVR (peptide)
chain: GIREELCDKGLHKMCFREVRGGGSGGGAEGDDPAKAAFNSLQASATEYIGYAWAMVVVIVGATIGIKLFKKFTSKAS
notes: as for B1
- binding result (IGF-1 [1]): binds
- binding result (BSA): no binding

B23: GAQAWLCEQREEWCGQMLGT (peptide)
chain: GAQAWLCEQREEWCGQMLGTGGGSGGGAEGDDPAKAAFNSLQASATEYIGYAWAMVVVIVGATIGIKLFKKFTSKAS
notes: as for B1
- binding result (IGF-1 [1]): binds
- binding result (BSA): no binding

B24: HWDWTGGYWWIGREPWKEAA (peptide)
chain: HWDWTGGYWWIGREPWKEAAGGGSGGGAEGDDPAKAAFNSLQASATEYIGYAWAMVVVIVGATIGIKLFKKFTSKAS
notes: as for B1
- binding result (IGF-1 [1]): binds
- binding result (BSA): no binding

Binder: LGCASDLAGFWYCWAG [F2-1]
- Insulin KIRA (IGF-1 [2]): 40.4 µM

B25: IECWQDLQGTRLCWE (peptide)
chain: IECWQDLQGTRLCWEGGGSGGGAEGDDPAKAAFNSLQASATEYIGYAWAMVVVIVGATIGIKLFKKFTSKAS
notes: as for B1
- binding result (IGF-1 [1]): binds
- binding result (BSA): no binding

Binder: ARCVVDAGGTWYCWAG [F2-P]
- Insulin KIRA (IGF-1 [2]): 300 µM

B26: TAGIECAYDKHLDQYCWWKE (peptide)
chain: TAGIECAYDKHLDQYCWWKEGGGSGGGAEGDDPAKAAFNSLQASATEYIGYAWAMVVVIVGATIGIKLFKKFTSKAS
notes: as for B1
- binding result (IGF-1 [1]): binds
- binding result (BSA): no binding
